B1: EYFP^C-CsACD2 (other)
chain: MAVNHLCQWQYLRFQLSHPSAPACRYLSPSRPKSSTSSTAKVNCSAAPSSSPMDSHNEGRKKFMEFPYASGPVRQLMVDLVSTVENTLDSQLLPCTLPPDVQYYENQNGTAQASLQIRSGLKSSLIDFILGSWVHSELPTGAALNITSLSAYLNSSTDAPNLLIELIQSSPTSLVLILDLPPRKDLVLHPDYLHTFYESTRLDEYRQMLEKVPEVRPYFSSSLYLRCVVSPSAIMVRVDTETETGAGESTRLDYIITNHVHPVAKQVIGIWLNQCACGGRHVGESDKAYLEKRDGLIKNKTIEIDLGSSFPRLFGPQVASRVLGEIQKVFTA
notes: not shown: C-terminal fragment of EYFP (pSAT6-cEYFP-C1-B) and its linker

Key:
[1] = biological target: SDE15-EYFP^N ([…]_04025 without signal peptide fused to the N-terminal fragment of EYFP) (Ca. liberibacter asiaticus); test: BiFC in citrus leaf protoplasts (FIG. 10B)
[2] = biological target: EYFP^C-SDE15 ([…]_04025 without signal peptide fused to the C-terminal fragment of EYFP) (Ca. liberibacter asiaticus); test: BiFC in citrus leaf protoplasts (FIG. 10B)
EYFP^C-CsACD2 = biological target: B1; test: BiFC in citrus leaf protoplasts

Row | Binder | binding result [1] | binding result [2] | binding result (EYFP^C-CsACD2)
1 | B1 | binds | – | –
2 | CsACD2-EYFP^N (other, not shown: N-terminal fragment of EYFP (pSAT6-nEYFP-C1) and its linker) MAVNHLCQWQYLRFQLSHPSAPACRYLSPSRPKSSTSSTAKVNCSAAPSSSPMDSHNEGRKKFMEFPYASGPVRQLMVDLVSTVENTLDSQLLPCTLPPDVQYYENQNGTAQASLQIRSGLKSSLIDFILGSWVHSELPTGAALNITSLSAYLNSSTDAPNLLIELIQSSPTSLVLILDLPPRKDLVLHPDYLHTFYESTRLDEYRQMLEKVPEVRPYFSSSLYLRCVVSPSAIMVRVDTETETGAGESTRLDYIITNHVHPVAKQVIGIWLNQCACGGRHVGESDKAYLEKRDGLIKNKTIEIDLGSSFPRLFGPQVASRVLGEIQKVFTA | – | binds | no binding
